Results taken from patent US20250243261A1.

Assays:
[1] = target: SARS-CoV-2 Wuhan Spike on pseudotyped lentivirus (SARS-CoV-2 Wuhan-Hu-1) (UniProt P0DTC2); experiment: cell-based or functional assay
[2] = target: HA H4 Hubei, A/swine/Hubei/06/2009(H4N1) (Influenza A virus); experiment: BLI, Fab
[3] = target: HA H7 HK17, A/Hong Kong/125/2017(H7N9) (Influenza A virus); experiment: BLI, Fab

Sequence of LY-1404 WT IgG (antibody) (VH): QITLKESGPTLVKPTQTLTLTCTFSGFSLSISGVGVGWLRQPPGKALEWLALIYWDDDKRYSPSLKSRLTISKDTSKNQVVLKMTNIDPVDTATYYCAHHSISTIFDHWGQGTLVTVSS
Sequence of LY-1404 WT IgG (antibody) (VL): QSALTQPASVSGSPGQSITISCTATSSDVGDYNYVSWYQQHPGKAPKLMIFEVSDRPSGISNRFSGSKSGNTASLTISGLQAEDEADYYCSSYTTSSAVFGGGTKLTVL

Substance	Wuhan pseudotyped lentivirus IC50 [1] [µg/mL]	Kd [2] [nM]	Kd [3] [nM]
LY-1404 WT IgG (antibody)	3.1		
MEDI8852 WT Fab		0.56	0.2
